Measured values: patent CN114262377A (XINJIANG YOUMAI BIOTECHNOLOGY CO LTD, dated 2022)

T1: CD70 on 卵巢癌细胞SKOV3 (UniProt P32970 1-193, limits assumed)
T1 construct: whole, on cells; also called 肿瘤细胞
T1 sequence (looked up): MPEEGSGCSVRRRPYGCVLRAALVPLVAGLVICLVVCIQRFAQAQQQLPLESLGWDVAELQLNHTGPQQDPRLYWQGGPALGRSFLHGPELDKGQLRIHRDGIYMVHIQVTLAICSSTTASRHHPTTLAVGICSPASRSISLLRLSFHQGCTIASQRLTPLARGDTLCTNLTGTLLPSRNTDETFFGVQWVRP

T2: mFc-CD70
T2 sequence (P32970 whole entry, species assumed, looked up): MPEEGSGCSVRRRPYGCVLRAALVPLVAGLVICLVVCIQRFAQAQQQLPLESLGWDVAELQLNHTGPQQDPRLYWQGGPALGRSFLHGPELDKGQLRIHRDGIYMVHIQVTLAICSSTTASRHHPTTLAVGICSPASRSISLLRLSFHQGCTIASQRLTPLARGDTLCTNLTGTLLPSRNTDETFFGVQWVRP

T3: mouse CD70-His (mouse, UniProt O55237 45-195, limits assumed)
T3 construct: also called 鼠CD70; not shown: His tag
T3 sequence (looked up): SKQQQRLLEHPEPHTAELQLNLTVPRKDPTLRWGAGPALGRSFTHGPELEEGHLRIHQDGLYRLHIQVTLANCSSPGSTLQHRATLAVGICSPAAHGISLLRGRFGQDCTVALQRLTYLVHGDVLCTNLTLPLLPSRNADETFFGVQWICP

T4: cyno-CD70-His (cynomolgus monkey, UniProt A0A2K5WTU9 39-190)
T4 construct: also called 食蟹猴CD70蛋白; 猴CD70; not shown: His tag
T4 sequence: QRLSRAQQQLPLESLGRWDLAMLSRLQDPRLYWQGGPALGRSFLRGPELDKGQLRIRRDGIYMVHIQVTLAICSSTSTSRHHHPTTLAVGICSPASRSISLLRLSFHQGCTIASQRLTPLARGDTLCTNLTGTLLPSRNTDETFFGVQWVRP

T5: human CD70-His (human, UniProt P32970 39-193, limits assumed)
T5 construct: also called 重组CD70蛋白; human CD70-His (Cat#CDL-H82D7); not shown: His tag
T5 sequence (looked up): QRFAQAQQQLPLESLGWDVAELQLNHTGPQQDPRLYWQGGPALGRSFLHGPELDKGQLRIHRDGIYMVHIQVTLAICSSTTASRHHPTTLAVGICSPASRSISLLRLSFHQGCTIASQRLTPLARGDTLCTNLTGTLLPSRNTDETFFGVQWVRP


Assays:
CD70 on 卵巢癌细胞SKOV3 = molecular target: T1, CD70 on 卵巢癌细胞SKOV3; assay: flow cytometry (MFI) on SKOV3 cells, goat anti-human IgG Fc-FITC
mFc-CD70 = molecular target: T2, mFc-CD70; assay: competition ELISA: blocks mFc-CD70 (75 ng/ml) binding to coated human CD27-His
mouse CD70-His = molecular target: T3, mouse CD70-His; assay: ELISA, mouse CD70-His coated 0.5 ug/ml, HRP-anti-human Fc
cyno-CD70-His = molecular target: T4, cyno-CD70-His; assay: ELISA, cyno-CD70-His coated 0.5 ug/ml, HRP-anti-human Fc
human CD70-His [1] = molecular target: T5, human CD70-His; assay: BLI (Fortebio), AHC sensor, antibody loaded at 4 ug/ml, human CD70-His trimer 60 nM in solution
human CD70-His [2] = molecular target: T5, human CD70-His; assay: ELISA, human CD70-His coated 0.5 ug/ml, HRP-anti-human Fc

| EC50 (CD70 on 卵巢癌细胞SKOV3) [nM] | IC50 (mFc-CD70) [µg/mL] | binding result (mouse CD70-His) | EC50 (cyno-CD70-His) [µg/mL] | Kd (human CD70-His [1]) [nM] | EC50 (human CD70-His [2]) [µg/mL] | Binder |
| --- | --- | --- | --- | --- | --- | --- |
| 1.74 | 0.0576 | no binding | 0.00571 | < 0.001 | 0.0244 | CHO细胞表达的含有人IgG-Fc结构域的CD70纳米抗体VHH-B6-Fc (Fc fusion, Order VHH then Fc follows the printed name; also called XJ-B6; VHH-B6 (as named in the results of the Fc-format assays); not shown: human IgG Fc domain) QVQLQESGGGSVQAGGSLRLSCVASDLIVNDGCMAWFRQVPGKEHEGVARIAIPTTPGSTLYADSVKGRFTISRDGAKNTLYLQMNSLKPEDTAVYYCAADQWASRGCTAIATIPAEFDYWGQGTQVTVSS |
| 0.374 | 0.06 | no binding | – | < 0.001 | 0.0251 | CHO细胞表达的含有人IgG-Fc结构域的CD70纳米抗体VHH-B3-Fc (Fc fusion, Order VHH then Fc follows the printed name; also called XJ-B3; VHH-B3 (as named in the results of the Fc-format assays); not shown: human IgG Fc domain) LQESGGGSVQAGGSLRLSCAASGIIVNDGCMAWFRQVPGKEREGVAGIVIGEYGGGTTYYADSVKGRFTISRDRAKNTLYLQMNSLKPEDTAMYYCAADQWASGGCTSIATFSDEFDYWGQGTQVTVSS |
